Drawing on paper doi:10.1101/2025.04.18.649599, this text covers relative brightness (relative to the monomeric standard), relative brightness and stoichiometry N for five substances.

Experiment in all cases: photon counting histogram
The target in assay [1] is HaloTag-AtCRY2 (photolyase homology region of cryptochrome 2 from A. thaliana) (A. thaliana).
Assay [2] has as its target HaloTag-VfAuLOV (light-oxygen-voltage (LOV) domain of V. frigida Aurochrome1) (V. frigida).
In assay [3] the target is HaloTag-bZip-VfAuLOV (V. frigida).
In assay [4] the target is HaloTag-AtCRY2(W374A) (A. thaliana).
Assay [5] addresses HaloTag-HsCRY2 (human CRY2 photolyase homology region) (human).

As to “HaloTag-AtCRY2 (photolyase homology region of cryptochrome 2 from A. thaliana) (domain or fragment)”, in assay [1], the relative brightness (relative to the monomeric standard) is 2 to 4, the relative brightness at 750 nM (relative to the monomeric standard) was 3 and the stoichiometry N came to 4. For “HaloTag-VfAuLOV (light-oxygen-voltage (LOV) domain of V. frigida Aurochrome1) (domain or fragment)”, the stoichiometry N in assay [2] came out at 2.

In the case of “HaloTag-bZip-VfAuLOV (domain or fragment)”, in assay [3], the stoichiometry N was found to be 2. Consider “HaloTag-AtCRY2(W374A) (domain or fragment)”, for which the relative brightness (relative to the monomeric standard) in assay [4] came out at 1.5.

Regarding “HaloTag-HsCRY2 (human CRY2 photolyase homology region) (domain or fragment)”, the relative brightness at about 750 nM (relative to the monomeric standard) in assay [5] worked out at 1.6.
